Experimental data: paper PMC4812828 (Nature structural & molecular biology, 2016)

How the values were obtained:
Test in all cases: cryo-EM structure
GINS = molecular target: T1, GINS (S. cerevisiae, UniProt Q03406;Q12488;P40359;Q12146)
T1 sequence 1: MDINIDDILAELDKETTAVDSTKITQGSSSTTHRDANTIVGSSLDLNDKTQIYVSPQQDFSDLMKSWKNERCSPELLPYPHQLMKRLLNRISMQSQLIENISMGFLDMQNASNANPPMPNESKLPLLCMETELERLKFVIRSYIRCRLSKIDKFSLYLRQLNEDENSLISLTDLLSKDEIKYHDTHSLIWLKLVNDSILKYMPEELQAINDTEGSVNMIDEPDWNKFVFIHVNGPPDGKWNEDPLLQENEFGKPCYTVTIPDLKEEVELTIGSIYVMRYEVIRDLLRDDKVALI
T1 sequence 2: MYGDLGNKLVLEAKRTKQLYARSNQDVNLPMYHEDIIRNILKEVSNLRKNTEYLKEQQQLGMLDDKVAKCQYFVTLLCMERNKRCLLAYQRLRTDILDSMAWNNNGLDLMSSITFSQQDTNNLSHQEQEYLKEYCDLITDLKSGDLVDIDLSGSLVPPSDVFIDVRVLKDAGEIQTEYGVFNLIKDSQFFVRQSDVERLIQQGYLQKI
T1 sequence 3: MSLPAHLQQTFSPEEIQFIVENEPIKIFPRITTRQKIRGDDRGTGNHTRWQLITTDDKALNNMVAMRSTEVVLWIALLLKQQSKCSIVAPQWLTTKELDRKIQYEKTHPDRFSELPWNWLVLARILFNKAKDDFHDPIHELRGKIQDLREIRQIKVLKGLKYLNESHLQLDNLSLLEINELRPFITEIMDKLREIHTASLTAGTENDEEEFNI
T1 sequence 4: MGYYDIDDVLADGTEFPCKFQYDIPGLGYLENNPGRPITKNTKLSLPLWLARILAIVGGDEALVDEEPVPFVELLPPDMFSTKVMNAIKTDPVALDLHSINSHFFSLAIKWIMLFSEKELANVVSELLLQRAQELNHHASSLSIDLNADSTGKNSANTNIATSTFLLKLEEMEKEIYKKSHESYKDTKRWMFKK

Mcm6 = Mcm6 (S. cerevisiae, UniProt P53091 1-1017)
Chain of Mcm6 (P53091 whole entry): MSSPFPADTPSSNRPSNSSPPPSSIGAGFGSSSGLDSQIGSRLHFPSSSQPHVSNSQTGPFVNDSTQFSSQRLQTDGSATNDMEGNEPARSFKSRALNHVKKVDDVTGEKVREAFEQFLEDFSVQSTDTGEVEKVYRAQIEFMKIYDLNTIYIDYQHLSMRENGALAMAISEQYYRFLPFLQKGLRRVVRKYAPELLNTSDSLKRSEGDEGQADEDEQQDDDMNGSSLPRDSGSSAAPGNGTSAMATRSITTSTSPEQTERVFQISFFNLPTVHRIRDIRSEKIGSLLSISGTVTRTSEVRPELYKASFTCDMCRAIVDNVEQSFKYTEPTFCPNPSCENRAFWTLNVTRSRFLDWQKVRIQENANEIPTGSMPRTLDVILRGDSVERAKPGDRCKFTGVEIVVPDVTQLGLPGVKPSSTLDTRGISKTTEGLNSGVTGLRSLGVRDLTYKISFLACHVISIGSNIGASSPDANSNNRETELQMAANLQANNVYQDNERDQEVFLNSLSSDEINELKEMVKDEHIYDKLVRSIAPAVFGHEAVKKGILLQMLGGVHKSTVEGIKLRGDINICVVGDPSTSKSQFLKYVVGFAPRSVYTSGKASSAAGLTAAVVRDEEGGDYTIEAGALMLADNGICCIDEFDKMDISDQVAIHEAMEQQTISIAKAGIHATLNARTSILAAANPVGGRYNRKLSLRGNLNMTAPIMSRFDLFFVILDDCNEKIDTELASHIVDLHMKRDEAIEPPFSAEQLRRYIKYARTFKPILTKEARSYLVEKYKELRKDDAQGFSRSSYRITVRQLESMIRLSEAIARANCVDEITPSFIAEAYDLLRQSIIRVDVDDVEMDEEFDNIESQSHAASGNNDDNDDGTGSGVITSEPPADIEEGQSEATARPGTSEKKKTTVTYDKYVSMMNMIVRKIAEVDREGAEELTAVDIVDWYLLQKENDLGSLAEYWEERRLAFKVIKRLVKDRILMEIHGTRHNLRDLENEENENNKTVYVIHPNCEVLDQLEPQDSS

Mcm4 = molecular target: T2, Mcm4 (S. cerevisiae, UniProt P30665 1-933)
T2 sequence: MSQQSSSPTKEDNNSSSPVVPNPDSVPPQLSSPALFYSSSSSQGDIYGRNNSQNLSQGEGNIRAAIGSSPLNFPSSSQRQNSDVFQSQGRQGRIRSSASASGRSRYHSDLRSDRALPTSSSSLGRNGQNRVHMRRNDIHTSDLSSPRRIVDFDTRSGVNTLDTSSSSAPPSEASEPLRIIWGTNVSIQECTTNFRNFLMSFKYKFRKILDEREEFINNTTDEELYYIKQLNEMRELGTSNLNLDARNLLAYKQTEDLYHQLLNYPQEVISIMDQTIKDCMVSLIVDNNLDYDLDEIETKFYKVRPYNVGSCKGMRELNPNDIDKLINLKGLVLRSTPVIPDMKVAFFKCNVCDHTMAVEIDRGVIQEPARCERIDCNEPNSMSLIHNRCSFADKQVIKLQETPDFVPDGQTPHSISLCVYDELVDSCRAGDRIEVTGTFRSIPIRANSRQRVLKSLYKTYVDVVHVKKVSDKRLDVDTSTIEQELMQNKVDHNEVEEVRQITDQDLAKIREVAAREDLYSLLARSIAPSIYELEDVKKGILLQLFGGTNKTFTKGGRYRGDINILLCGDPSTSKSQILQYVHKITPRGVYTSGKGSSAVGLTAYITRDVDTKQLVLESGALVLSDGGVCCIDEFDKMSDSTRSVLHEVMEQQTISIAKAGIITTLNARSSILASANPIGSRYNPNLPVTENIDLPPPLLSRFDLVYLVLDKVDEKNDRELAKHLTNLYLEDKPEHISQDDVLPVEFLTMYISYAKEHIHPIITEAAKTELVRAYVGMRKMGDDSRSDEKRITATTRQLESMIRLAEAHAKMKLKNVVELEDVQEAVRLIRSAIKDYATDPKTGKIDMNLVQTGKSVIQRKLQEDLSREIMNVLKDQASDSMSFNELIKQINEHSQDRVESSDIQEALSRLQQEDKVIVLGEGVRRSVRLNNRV

Mcm3 = Mcm3 (S. cerevisiae, UniProt P24279 1-971)
Chain of Mcm3 (P24279 whole entry): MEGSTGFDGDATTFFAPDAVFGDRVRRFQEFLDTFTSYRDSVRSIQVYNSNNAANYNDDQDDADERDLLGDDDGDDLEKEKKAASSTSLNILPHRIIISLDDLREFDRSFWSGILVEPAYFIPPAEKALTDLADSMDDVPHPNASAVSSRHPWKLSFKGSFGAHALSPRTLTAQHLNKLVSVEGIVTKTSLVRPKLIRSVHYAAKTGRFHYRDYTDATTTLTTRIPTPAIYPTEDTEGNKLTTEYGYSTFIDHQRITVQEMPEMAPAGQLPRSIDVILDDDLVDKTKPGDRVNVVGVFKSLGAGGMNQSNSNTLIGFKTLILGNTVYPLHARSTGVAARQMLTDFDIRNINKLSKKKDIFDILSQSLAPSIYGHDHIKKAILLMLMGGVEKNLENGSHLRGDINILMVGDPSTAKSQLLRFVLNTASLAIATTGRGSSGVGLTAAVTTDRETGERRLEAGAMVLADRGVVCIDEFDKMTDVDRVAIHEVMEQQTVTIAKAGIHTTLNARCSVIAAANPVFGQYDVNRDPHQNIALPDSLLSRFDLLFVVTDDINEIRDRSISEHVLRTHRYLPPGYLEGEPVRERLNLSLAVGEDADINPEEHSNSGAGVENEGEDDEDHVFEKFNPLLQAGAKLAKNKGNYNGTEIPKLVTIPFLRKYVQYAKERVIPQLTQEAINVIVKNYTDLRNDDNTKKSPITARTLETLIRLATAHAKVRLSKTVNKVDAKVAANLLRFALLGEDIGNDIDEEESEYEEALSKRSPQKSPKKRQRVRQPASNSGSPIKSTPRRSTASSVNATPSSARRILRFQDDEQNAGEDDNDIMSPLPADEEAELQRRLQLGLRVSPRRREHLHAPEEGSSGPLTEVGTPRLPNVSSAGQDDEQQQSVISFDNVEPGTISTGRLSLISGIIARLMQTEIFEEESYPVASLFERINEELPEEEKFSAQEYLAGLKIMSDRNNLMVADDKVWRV

Cdc45 = molecular target: T3, Cdc45 (S. cerevisiae, UniProt Q08032 1-650)
T3 sequence: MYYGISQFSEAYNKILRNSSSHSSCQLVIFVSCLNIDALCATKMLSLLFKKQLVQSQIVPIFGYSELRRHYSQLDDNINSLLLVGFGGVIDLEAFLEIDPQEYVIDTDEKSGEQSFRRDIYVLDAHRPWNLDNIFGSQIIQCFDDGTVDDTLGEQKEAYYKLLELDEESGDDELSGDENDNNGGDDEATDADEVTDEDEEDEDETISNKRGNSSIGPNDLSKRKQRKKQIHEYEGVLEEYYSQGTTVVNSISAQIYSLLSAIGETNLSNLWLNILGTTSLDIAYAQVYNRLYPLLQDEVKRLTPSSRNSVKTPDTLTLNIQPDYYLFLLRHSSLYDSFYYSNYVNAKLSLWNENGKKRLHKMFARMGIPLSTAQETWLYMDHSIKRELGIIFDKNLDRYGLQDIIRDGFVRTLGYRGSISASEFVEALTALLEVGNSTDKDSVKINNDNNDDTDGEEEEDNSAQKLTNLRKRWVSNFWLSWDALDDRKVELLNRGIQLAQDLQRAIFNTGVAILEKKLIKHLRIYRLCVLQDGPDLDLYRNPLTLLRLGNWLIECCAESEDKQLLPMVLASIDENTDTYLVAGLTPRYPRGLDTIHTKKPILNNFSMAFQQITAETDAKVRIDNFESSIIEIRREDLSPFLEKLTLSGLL

B1: Mcm5 (natural protein)
chain: MSFDRPEIYSAPVLQGESPNDDDNTEIIKSFKNFILEFRLDSQFIYRDQLRNNILVKNYSLTVNMEHLIGYNEDIYKKLSDEPSDIIPLFETAITQVAKRISILSRAQSANNNDKDPENTSMDTDSLLLNSLPTFQLILNSNANQIPLRDLDSEHVSKIVRLSGIIISTSVLSSRATYLSIMCRNCRHTTSITINNFNSITGNTVSLPRSCLSTIESESSMANESNIGDESTKKNCGPDPYIIIHESSKFIDQQFLKLQEIPELVPVGEMPRNLTMTCDRYLTNKVIPGTRVTIVGIYSIYNSKNGAGSGRSGGGNGGSGVAIRTPYIKILGIQSDVETSSIWNSVTMFTEEEEEEFLQLSRNPKLYEILTNSIAPSIFGNEDIKKAIVCLLMGGSKKILPDGMRLRGDINVLLLGDPGTAKSQLLKFVEKVSPIAVYTSGKGSSAAGLTASVQRDPMTREFYLEGGAMVLADGGVVCIDEFDKMRDEDRVAIHEAMEQQTISIAKAGITTVLNSRTSVLAAANPIYGRYDDLKSPGDNIDFQTTILSRFDMIFIVKDDHNEERDISIANHVINIHTGNANAMQNQQEENGSEISIEKMKRYITYCRLKCAPRLSPQAAEKLSSNFVTIRKQLLINELESTERSSIPITIRQLEAIIRITESLAKLELSPIAQERHVDEAIRLFQASTMDAASQDPIGGLNQASGTSLSEIRRFEQELKRRLPIGWSTSYQTLRREFVDTHRFSQLALDKALYALEKHETIQLRHQGQNIYRSGV
- binding result (GINS): binds
- binding result (Mcm6): binds

B2: Mcm7 (natural protein)
chain: MSAALPSIQLPVDYNNLFNEITDFLVTFKQDTLSSDATRNENEDENLDAENIEQHLLEKGPKYMAMLQKVANRELNSVIIDLDDILQYQNEKFLQGTQADDLVSAIQQNANHFTELFCRAIDNNMPLPTKEIDYKDDVLDVILNQRRLRNERMLSDRTNEIRSENLMDTTMDPPSSMNDALREVVEDETELFPPNLTRRYFLYFKPLSQNCARRYRKKAISSKPLSVRQIKGDFLGQLITVRGIITRVSDVKPAVEVIAYTCDQCGYEVFQEVNSRTFTPLSECTSEECSQNQTKGQLFMSTRASKFSAFQECKIQELSQQVPVGHIPRSLNIHVNGTLVRSLSPGDIVDVTGIFLPAPYTGFKALKAGLLTETYLEAQFVRQHKKKFASFSLTSDVEERVMELITSGDVYNRLAKSIAPEIYGNLDVKKALLLLLVGGVDKRVGDGMKIRGDINVCLMGDPGVAKSQLLKAICKISPRGVYTTGKGSSGVGLTAAVMKDPVTDEMILEGGALVLADNGICCIDEFDKMDESDRTAIHEVMEQQTISISKAGINTTLNARTSILAAANPLYGRYNPRLSPLDNINLPAALLSRFDILFLMLDIPSRDDDEKLAEHVTYVHMHNKQPDLDFTPVEPSKMREYIAYAKTKRPVMSEAVNDYVVQAYIRLRQDSKREMDSKFSFGQATPRTLLGIIRLSQALAKLRLADMVDIDDVEEALRLVRVSKESLYQETNKSKEDESPTTKIFTIIKKMLQETGKNTLSYENIVKTVRLRGFTMLQLSNCIQEYSYLNVWHLINEGNTLKFVDDGTMDTDQEDSLVSTPKLAPQTTASANVSAQDSDIDLQDA
- binding result (Mcm4): binds
- binding result (Mcm3): binds

B3: Psf1 (natural protein)
chain: MYGDLGNKLVLEAKRTKQLYARSNQDVNLPMYHEDIIRNILKEVSNLRKNTEYLKEQQQLGMLDDKVAKCQYFVTLLCMERNKRCLLAYQRLRTDILDSMAWNNNGLDLMSSITFSQQDTNNLSHQEQEYLKEYCDLITDLKSGDLVDIDLSGSLVPPSDVFIDVRVLKDAGEIQTEYGVFNLIKDSQFFVRQSDVERLIQQGYLQKI
- binding result (Cdc45): binds

B4: Psf2 (natural protein)
chain: MSLPAHLQQTFSPEEIQFIVENEPIKIFPRITTRQKIRGDDRGTGNHTRWQLITTDDKALNNMVAMRSTEVVLWIALLLKQQSKCSIVAPQWLTTKELDRKIQYEKTHPDRFSELPWNWLVLARILFNKAKDDFHDPIHELRGKIQDLREIRQIKVLKGLKYLNESHLQLDNLSLLEINELRPFITEIMDKLREIHTASLTAGTENDEEEFNI
- binding result (Cdc45): binds
